T1: SEQ ID NO 28
T1 construct: Short fragment obtained by dividing the 13-aa immunogen peptide; also called divided peptide consisting of 7 amino acids
T1 peptide: CDTTATT

T2: SEQ ID NO 29
T2 construct: Short fragment obtained by dividing the 13-aa immunogen peptide; also called divided peptide consisting of 7 amino acids
T2 peptide: TATTEPA

T3: peptide CDTTATTEPAVHD (entire-length peptide of 13 amino acids used as an immunogen)
T3 construct: Synthetic peptide with an added N-terminal cysteine; It was KLH-coupled only for immunization
T3 peptide: CDTTATTEPAVHD

T4: SEQ ID NO 30
T4 construct: Short fragment obtained by dividing the 13-aa immunogen peptide; also called divided peptide consisting of 7 amino acids
T4 peptide: TEPAVHD

T5: human CADM1 v9 fragment (human, UniProt Q9BY67-4 45-371)
T5 construct: Extracellular region of CADM1 v8/9 released from cells by protease cleavage; It was tested in, or purified from, the culture supernatant of SBC5 cells stably expressing CADM1 v8/9 (approximately 80 kDa, O-glycosylated region); also called v9 fragment of CADM1; CADM1 v8/9 fragment
T5 sequence: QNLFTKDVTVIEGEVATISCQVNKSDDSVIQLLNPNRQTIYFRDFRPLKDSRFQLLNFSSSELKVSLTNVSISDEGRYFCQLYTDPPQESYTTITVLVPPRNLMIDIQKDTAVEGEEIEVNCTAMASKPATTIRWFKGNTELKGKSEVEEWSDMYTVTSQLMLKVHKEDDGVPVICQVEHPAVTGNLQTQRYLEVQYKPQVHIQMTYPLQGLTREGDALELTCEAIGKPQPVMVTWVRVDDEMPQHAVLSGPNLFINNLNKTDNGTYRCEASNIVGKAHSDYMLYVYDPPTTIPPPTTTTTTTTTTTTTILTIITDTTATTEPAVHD


Tests used:
SEQ ID NO 28 = target: T1, SEQ ID NO 28; assay: ELISA on coated peptide, HRP-labeled antibody
Procedure: (§1) The anti-CADM1 v9 antibodies F1222 and F1315 were previously HRP-labeled using Peroxidase Labeling Kit-NH₂ (DOJINDO LABORATORIES), and epitopes were narrowed down according to an ELISA method. Peptide synthesis was outsourced to Toray Research Center, Inc. The peptide was dissolved in 10% DMSO/PBS to prepare a peptide solution having a concentration of 1 mg/mL. […] of the peptide diluted in a carbonate buffer to a concentration of […] was added to Nunc MaxiSorp 96-well plate (Thermo Fisher Scientific) and was left at rest at 4° C. overnight for immobilization. The plate was washed with PBS-T twice, and […] of 1%/BSA/PBS-T was added. The plate was left at rest at room temperature for 1 hour for blocking. The plate was washed with PBS-T twice, and […] of the HRP-labeled antibody diluted in 1% BSA/PBS-T to a concentration of 100 ng/mL was added, followed by incubation at room temperature for 1 hour. The plate was washed with PBS-T four times, and […] of TMB Soluble Reagent (ScyTek Laboratories) was then added for color development. […] of TMB Stop Buffer (ScyTek Laboratories) was further added to terminate the reaction. Finally, using the Ensight plate reader (PerkinElmer), the wavelength at 450 nm was measured.
(§2) In order to narrow down the epitope of the anti-CADM1 v9 antibody, a peptide consisting of 13 amino acids in entire length (SEQ ID NO: 2) used as an immunogen, and peptides obtained by dividing the aforementioned peptide into short fragments (SEQ ID NOS: 28 to 30) were synthesized, and the reactivity of these peptides to the anti-CADM1 v9 antibody was studied using an ELISA method.

SEQ ID NO 29 = target: T2, SEQ ID NO 29; assay: ELISA on coated peptide, HRP-labeled antibody
Procedure: as §1, §2

[1] = target: T3, peptide CDTTATTEPAVHD (entire-length …); assay: ELISA on coated peptide, HRP-labeled antibody
Procedure: as §1, §2

SEQ ID NO 30 = target: T4, SEQ ID NO 30; assay: ELISA on coated peptide, HRP-labeled antibody
Procedure: as §1, §2

human CADM1 v9 fragment [2] = target: T5, human CADM1 v9 fragment; assay: sandwich ELISA on culture supernatant, capture E9935, detection HRP-labeled F1222
Procedure: (§3) PBS-T (137 mM NaCl, 8.1 mM […], 2.68 mM KCl, 1.47 mM KH₂PO₄, and 0.05% Tween 20) was used for washing twice, and […] of 1%/BSA (Wako Pure Chemical Industries, Ltd.)/PBS-T was added. The plate was left at rest at room temperature for 1 hour for blocking. The plate was washed with PBS-T twice, and thereafter, a standard for a calibration curve, a culture supernatant, and serum or pleural effusion were added, followed by incubation at room temperature for 1 hour. The plate was washed with PBS-T four times, and […] of the detection antibody diluted in 1% BSA/PBS-T to a concentration of 100 ng/mL was added, followed by incubation at room temperature for 1 hour. The plate was washed with PBS-T six times, and […] of TMB Soluble Reagent (ScyTek Laboratories) was then added for color development. […] of TMB Stop Buffer (ScyTek Laboratories) was further added to terminate the reaction. Finally, using an Ensight plate reader (PerkinElmer), the wavelength at 450 nm was measured.
(§4) (A) The total amount of CADM1 fragment or other cells and (B) the amount of the CADM1 v9 fragment, secreted in the culture supernatant of SCLC were measured according to a sandwich ELISA method. As a capture antibody, the anti-CADM1 mouse monoclonal antibody E9935 was used. As detection antibodies, the anti-CADM1 antibody E9919 and the anti-CADM1 v8/9 antibody F1222, which were HRP-labeled, were used. […]

human CADM1 v9 fragment [3] = target: T5, human CADM1 v9 fragment; assay: sandwich ELISA on culture supernatant, E9935 as capture antibody, detection HRP-labeled F1222
Procedure: as §3, §4

| binding result (SEQ ID NO 28) | binding result (SEQ ID NO 29) | binding result [1] | binding result (SEQ ID NO 30) | binding result (human CADM1 v9 fragment [2]) | binding result (human CADM1 v9 fragment [3]) | Binder |
| --- | --- | --- | --- | --- | --- | --- |
| no binding (tested: 100 ng/mL antibody) | no binding (tested: 100 ng/mL antibody) | binds | no binding (tested: 100 ng/mL antibody) | binds | – | anti-CADM1 v9 antibody F1222 (antibody, V domains shown, Mouse monoclonal antibody from a hybridoma (Cadm1-/- Balb/c mice); It was HRP-labeled (Peroxidase Labeling Kit-NH2) in the sandwich and peptide ELISAs; also called anti-CADM1 v8/9 antibody F1222) VH: EVQLVESGGGLVQPKGSLKLSCAASGFTFNTYAMNWVRQAPGKGLEWVARIRSKSNYYTTYYADSVKDRFTISRDDSQSMLYLQMNNLKTEDTAMYYCIRQRHGNFYWGQGTLVTVSA VL: DIVLTQSPASLAVSLGQRATISCKASQSVDYDGYSYMNWYQQKPGQPPKLLIYAASNLESGIPARFSGSGSGTDFTLNIHPVEEEDAATYYCQQSNEDPPTFGAGTKLELK |
| – | – | – | – | – | binds | anti-CADM1 mouse monoclonal antibody E9935 (antibody, V domains shown, Mouse monoclonal antibody from a hybridoma; It served as the capture antibody in the sandwich ELISA and, crosslinked to Protein A Sepharose, for purification; also called anti-CADM1 antibody E9935) VH: QVQLQQSGTELAKPGASVKMSCKASGYTFTHYWMHWVKQRPGQGLEWIGFINPGTGYTEYNQKFKDKATLTADKSSSTAYIQLSSLTSEDSAVYYCSRASYYSGSSHAWFGFWGQGTLVTVSA VL: DIVLTQSPASLAVSLGQRATISCKASQSVNYDGDNYMNWYQQKPGQPPKLLIYAASNLESGIPARFSGSGSGTDFTLNIHPVEEEDAATYYCQQSYEDPWTFGGGTKLEIK |
